Experimental data reported in US7064106B2, “Gene and use thereof” (Takeda Chemical Industries, Ltd., priority 1999, dated 2006).

What was measured:
IRAP-His = target: T1, IRAP-His (Rattus norvegicus, UniProt P97629); experiment: Biochemical binding test of human MD36 (EIA plate, anti-Penta-His detection); settings: IRAP-His 1.0 μg/ml and anti-Penta-His antibody both added to human MD36-coated wells
T1 construct: to construct plasmid pET21-IRAP (1–109); made in house
T1 sequence (P97629 1-109): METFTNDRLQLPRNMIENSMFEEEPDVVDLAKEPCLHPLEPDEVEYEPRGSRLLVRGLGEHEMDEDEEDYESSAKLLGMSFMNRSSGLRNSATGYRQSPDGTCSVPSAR
Text: The C terminal part (partial peptide encoded by the partial base sequence of 2995–3674 from the 5′ end in SEQ ID NO:2) of SEQ ID NO:1 (full-length cDNA of MD36) was used as human MD36. This DNA fragment was inserted into pGEX expression vector (Amersham Pharmacia) to construct expression plasmid pGEX-MD36N4 capable of expressing the human MD36 partial protein in the form fused to GST (glutathione S-transferase) protein (GST-MD36N4 protein) under control of tac promoter. However, the protease recognition site in these junctions was removed by applying PCR. Using pGEX-MD36N4, E. coli BL21 was transformed and the transformants were cultured in LB medium in a conventional manner while inducing expression by IPTG. After culture, the cells collected were disrupted by sonication followed by centrifugation of the cell homogenate. As a result, most of the GST-MD36N4 protein were present in the insoluble fraction. […]
Protein-protein binding test was carried out by the procedure shown below. […] After the wells were again rinsed 3 times with TBS-T, the IRAP-His protein remained in the wells was quantitatively assayed using anti-Penta-His antibody (Qiagen, Inc.). […] IRAP-His (1.0 μg/ml) or anti-Penta-His antibody (diluted to 2000 fold) and both were added to the GST-MD364N-coated or uncoated wells, and after washing with TBS-T, the amount of His-Tag remained in the wells was quantified. […]

profilin II = target: T2, profilin II (Homo sapiens, UniProt P35080); experiment: Yeast two-hybrid HIS3 growth test, MD36 and profilin family; type: cell-based; settings: S. cerevisiae Y190; 40 mM 3-amino-1,2,4-triazole
T2 construct: expressed in transfected cells; host or cells: Saccharomyces cerevisiae Y190
T2 sequence (P35080 1-140 isoform P35080-2): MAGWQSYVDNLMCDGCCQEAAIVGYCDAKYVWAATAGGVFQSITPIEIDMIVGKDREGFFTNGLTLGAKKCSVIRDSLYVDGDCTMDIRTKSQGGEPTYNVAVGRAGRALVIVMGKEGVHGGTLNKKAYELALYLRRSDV
Text: (§1) The protein-protein interaction between MD36 and the profilin family was detected by the yeast two-hybrid system. Based on pGBT9 (CLONTECH), expression plasmids were constructed to express the coding regions of profiling I (Evangelista et al., Science, 276, 118–122, 1997; Imamura et al., EMBO J., 16, 2745–2755, 1997; Tanaka, Biochem. Biophys. Res. Commun., 267, 479–481, 2000), profilin II (Schluter et al., Biohim. Biophys. Acta, 1359, 97–109, 1997), and profiling IIL in the form fused to yeast GAL4-DNA-binding domain protein under control of yeast ADH1 promoter. These plasmids were named pG-PFNI, pG-PFNII and pG-PFNIII, respectively (yeast selection marker was TRP1). On the other hand, expression plasmids that express the full-length sequence (SEQ ID NO:1) of MD36, which is IRAP-BP protein, or the coding region from this N-terminus to the sequence (SEQ ID NO:33) including the proline-rich domain in the form fused to yeast […] activated domain protein under control of yeast ADH1 promoter was constructed based on pACT2 (CLONTECH), and named pACT-MD36 and pACT-MD36NT, respectively (yeast selection marker was LEU2). pG-PFNI, pG-PFNII, pG-PFNIII or, pGBT9 for control was co-transfected to yeast Saccharomyces cerevisiae Y190 together with pACT-MD36 or pACT-MD36NT, and yeast strains bearing plasmids from the two were selected on SD medium free of tryptophan and leucine. S. cerevisiae Y190 is originally a histidine auxotrophic strain but when the introduced proteins on the plasmids show the interactions, reporter gene HIS3 is expressed and the strain becomes capable of growing on a histidine-free plate. The yeast strain acquired was spread on tryptophan, leucine and histidine-free SD medium supplemented with 40 mM 3-amino-1,2,4-triazole.

profilin I = experiment: as above; type: cell-based; settings: S. cerevisiae Y190; 40 mM 3-amino-1,2,4-triazole
Text: as §1

B1: MD36: human skeletal muscle-derived IRAP binding protein, SEQ ID NO:1; C-terminal part (bases 2995–3674) used in binding tests (protein, listed as Homo sapiens)
chain: MAGGEDRGDGEPVSVVTVRVQYLEDTDPFACANFPEPRRAPTCSLDGALPLGAQIPAVHRLLGAPLKLEDCALQVSPSGYYLDTELSLEEQREMLEGFYEEISKGRKPTLILRTQLSVRVNAILEKLYSSSGPELRRSLFSLKQIFQEDKDLVPEFVHSEGLSCLIRVGAAADHNYQSYILRALGQLMLFVDGMLGVVAHSDTIQWLYTLCASLSRLVVKTALKLLLVFVEYSENNAPLFIRAVNSVASTTGAPPWANLVSILEEKNGADPELLVYTVTLINKTLAALPDQDSFYDVTDALEQQGMEALVQRHLGTAGTDVDLRTQLVLYENALKLEDGDIEEAPGAGGRRERRKPSSEEGKRSRRSLEGGGCPARAPEPGPTGPASPVGPTSSTGPALLTGPASSPVGPPSGLQASVNLFPTISVAPSADTSSERSIYKLHQTASVWAPESPPVPQSPPGQARLEARFLENVAAAETEKQVALAQGRAETLAGAMPNEAGGHPDARQLWDSPETAPAARTPQSPAPCVLLRAQRSLAPEPKEPLIPASPKAEPIWELPTRAPRLSIGDLDFSDLGEDEDQDMLNVESVEAGKDIPAPSPPLPLLSGVPPPPPLPPPPPIKGPFPPPPPLPLAAPLPHSVPDSSALPTKRKTVKLFWRELKLAGGHGVSASRFGPCATLWASLDPVSVDTARLEHLFESRAKEVLPSKKAGEGRRTMTTVLDPKRSNAINIGLTTLPPVHVIKAALLNFDEFAVSKDGIEKLLTMMPTEEERQKIEEAQLANPDIPLGPAENFLMTLASIGGLAARLQLWAFKLDYDSMEREIAEPLFDLKVGMEQLVQNATFRCILATLLAVGNFLNGSQSSGFELSYLEKVSEVKDTVRRQSLLHHLCSLVLQTRPESSDLYSEIPALTRCAKVDFEQLTENLGQLERRSRAAEESLRSLAKHELAPALRARLTHFLDQCARRVAMLRIVHRRVCNRFHAFLLYLGYTPQAAREVRIMQFCHTLREFALEYRTCRERVLQQQQKQATYRERNKTRGRMITETEKFSGVAGEAPSNPSVPVAVSSGPGRGDADSHASMKSLLTSRPEDTTHNRRSRGMVQSSSPIMPTVGPSTASPEEPPGSSLPSDTSDEIMDLLVQSVTKSSPRALAARERKRSRGNRKSLRRTLKSGLGDDLVQALGLSKGPGLEV
amount of His-Tag remained in the wells (IRAP-His): markedly detected | growth of yeast on tryptophan, leucine and histidine-free SD medium (profilin II): did not grow | growth of yeast on tryptophan, leucine and histidine-free SD medium (profilin I): did not grow
